Experiments:
[1] = Pharmacokinetics in huFcRn transgenic mice; conditions: 0.1 mg/kg IV; for Cmax: average of 3 animals
Method: PK of CD80-Fc fusion proteins was also assessed in transgenic mice expressing the human neonatal Fc receptor (huFcRn) a-chain transgene under the control of its natural human promoter. Female mice were dosed intravenously with CD80-Fc fusion proteins at 0.1 mg/kg, and blood was collected at the timepoints indicated on the graph. Levels of CD80-Fc in mouse plasma were measured as described above.

[2] = AC-SINS self-interaction assay; type: physicochemical
Method: Variant CD80-Fc fusion proteins were assessed by measuring non-specific binding using a DNA- and insulin-binding ELISA (Avery et al., MAbs. 2018 February/March; 10(2): 244-255) and for self-interaction in an AC-SINS assay (affinity-capture self-interaction nanoparticle spectroscopy; Liu et al., 2014, mAbs 6:483-92). DNA- and insulin-binding scores were calculated as the signal ratio of the ELISA signal of the CD80-Fc fusion protein at 10 μg/ml to the ELISA signal in the absence of the Fc-fusion protein (buffer only). For the AC-SINS assay, proteins are captured by anti-human Fc antibodies coated on gold nanoparticles. […] The score ranges obtained from these in vitro assays correlate well with in vivo clearance using huFcRn transgenic (Tg32) mouse. Therapeutic proteins with high scores are at high risk for rapid clearance and unfavorable PK and therapeutics that score low are at low risk and favorable PK.

[3] = Pharmacokinetics in cynomolgus monkeys; type: in vivo; conditions: cynomolgus monkey
Method: PK of variant CD80-Fc fusion proteins was assessed in non-human primates. […] A ligand binding assay using the Gyrolab Immunoassay platform was used to quantitate CD80-Fc molecules in cynomolgus monkey serum following dose administration. CD80-Fc constructs were captured onto the Gyrolab Bioaffy CD using a biotinylated monoclonal anti-human CD80 antibody (Thermo Fisher Cat #13-0809-82). Bound CD80-Fc constructs were detected using a mouse anti-human Fc antibody (SouthernBiotech Cat #9040-01) that was labeled with Alexa Fluor 647. Sample concentrations were determined by interpolation from a calibration curve that were fit using a 5-parameter logistic regression model. The range of quantitation of the assay was 100-15000 ng/ml in 100% serum. […] AUC (Area Under the Curve); Cmax (Maximum Concentration observed); Tmax (Time of Maximum concentration observed)

[4] = Thermal stability by Differential Scanning calorimetry (DSC); type: physicochemical
Method: There is a correlation between the thermal stability of a protein with the overall stability of the protein. Enhanced thermal stability often provides improved manufacturability and longer shelf life/stability. Thermal stability of variant CD80-Fc fusion proteins was assessed by Differential Scanning calorimetry (DSC). Variant CD80-Fc fusion proteins were analyzed using a MicroCal VP-DSC instrument. […] Tables 8-10 show the first thermal transition temperature (Tm1) of CD80-Fc fusion proteins and the enhanced thermal stability of variant CD80-Fc fusion proteins compared to CD80-WT-Fc fusion proteins.

[5] = tested on: Jurkat-IL-2-Luc reporter cells; assay: Jurkat-IL-2-Luc and HCT116-CD64 reporter co-stimulation assay; type: cell-based, human; conditions: for EC50: Table 17, 20 ng/ml CDH3×CD3 bispecific, n=2
Text: A T cell co-stimulation assay was designed based on T Cell Activation Bioassay (IL-2) Kit from Promega (Product #J1631). The assay consisted of a genetically engineered Jurkat T cell line that expresses luciferase reporter driven by an IL-2 promoter. Co-engagement of T cell antigen receptor (TCR/CD3) and CD28 co-stimulatory receptor induces activation of T cells and downstream intracellular signaling pathways that in turn regulate the expression of luciferase reporter. As described above, HCT116 human colon cancer cell line was used for TCR engagement using the CDH3×CD3 bispecific and genetically engineered by lentiviral transduction to express human FCγRI.
A 96 well culture plate was seeded with HCT116 parental or HCT116-CD64 cells at 40,000 cells per well in 100 μL RPMI with 10% HI FBS and grown overnight at 37° C. in CO2 incubator. To each well, Jurkat reporter cells (100,000 per well) and 10 μL of the CDH3×CD3 bispecific (8 ng/ml final concentration) were added. 10 μL of serial dilutions of variant CD80-Fc fusion proteins with concentrations ranging from 0-1000 ng/ml (final concentrations per well) was added with appropriate controls. Assay plates were incubated for 6 hours at 37° C. in CO2 incubator for before harvesting culture supernatants and transferring to new plates. Following equilibration, 80 μL of BioGlo luminescence reagent (BioGlo Luciferase assay kit, Promega, G7940) was added into each well. Plates were incubated for 5 minutes before reading luminescence on the EnSight™ plate reader (PerkinElmer).
Jurkat is an immortalized human T cell line, and the Jurkat IL-2-reporter assay assesses the CD28-mediated signaling resulting in activation of the IL-2 promoter. The activity of CD80-Fc fusion proteins was measured using the co-culture HCT116-CD64-Jurkat IL-2 reporter assay, as described in Example 2, but using 20 ng/ml CDH3×CD3 bispecific.

CD80-WT-Fc: wild-type human CD80 extracellular domain fused to human IgG1 Fc (C220S) [reference compound]
AUC [1]: 97 µg·h/mL | CL [1]: 20.2 mL/day/kg | T1/2 [1]: 80 h | Vdss [1]: 0.087 L/kg | Cmax [1]: 2 µg/mL | AC-SINS Score ([2]; Table 6): 0 | AC-SINS Score ([2]; Table 7): 0 | AUC ([3]; 3 mpk IV): 2480 µg·h/mL | Cmax ([3]; 3 mpk IV): 90.7 µg/mL | Tmax ([3]; 3 mpk IV): 4.98 min | AUC ([3]; 15 mpk IV): 13900 µg·h/mL | Cmax ([3]; 15 mpk IV): 460 µg/mL | Tmax ([3]; 15 mpk IV): 4.98 min | AUC ([3]; 50 mpk IV): 37000 µg·h/mL | Tmax ([3]; 50 mpk IV): 4.98 min | DSC Tm1 ([4]; Glu pH 4.5): 62.78 ± 0.03 °C | DSC Tm1 ([4]; His pH 5.8): 63.40 ± 0.35 °C | DSC Tm1 ([4]; PBS): 59.52 ± 0.07 °C | DSC Tm1 ([4]; Tris pH 7.5): 64.77 ± 0.14 °C | EC50 [5]: 0.58 ± 0.074 nM

CD80-K89D-D90K-T28V-T57V-Fc: non-cysteine stabilized variant CD80-Fc fusion protein (K89D, D90K, T28V, T57V)
AUC [1]: 147 µg·h/mL | CL [1]: 14 mL/day/kg | Vdss [1]: 0.082 L/kg | Cmax [1]: 2.3 µg/mL | AC-SINS Score ([2]; Table 7): −1 | DSC Tm1 ([4]; Glu pH 4.5): 65.11 ± 0.23 °C | DSC Tm1 ([4]; His pH 5.8): 68.57 ± 0.74 °C | DSC Tm1 ([4]; PBS): 63.70 ± 0.07 °C | DSC Tm1 ([4]; Tris pH 7.5): 66.94 ± 1.6 °C | EC50 [5]: 0.047 ± 0.004 nM

CD80-K89Q-D90Q-E23C-A26C-Fc: disulfide stabilized variant CD80-Fc fusion protein (K89Q, D90Q, E23C, A26C)
AUC [1]: 182 µg·h/mL | CL [1]: 8.6 mL/day/kg | T1/2 [1]: 211 h | Vdss [1]: 0.109 L/kg | Cmax [1]: 2.2 µg/mL | AC-SINS Score ([2]; Table 6): −1 | AUC ([3]; 3 mpk IV): 3680 µg·h/mL | AUC fold-increase over WT ([3]; 3 mpk IV): 1.48 | Cmax ([3]; 3 mpk IV): 107 µg/mL | Tmax ([3]; 3 mpk IV): 4.98 min | AUC ([3]; 15 mpk IV): 27800 µg·h/mL | AUC fold-increase over WT ([3]; 15 mpk IV): 2.00 | Cmax ([3]; 15 mpk IV): 627 µg/mL | Tmax ([3]; 15 mpk IV): 4.98 min | AUC ([3]; 50 mpk IV): 72200 µg·h/mL | AUC fold-increase over WT ([3]; 50 mpk IV): 1.95 | Cmax ([3]; 50 mpk IV): 1790 µg/mL | Tmax ([3]; 50 mpk IV): 4.98 min | DSC Tm1 ([4]; PBS): 67.28 ± 0.2 °C | EC50 [5]: 0.27 ± 0.044 nM

CD80-D90Q-Fc: variant CD80 ECD (D90Q) fused to human IgG1 Fc
AC-SINS Score ([2]; Table 6): 0 | DSC Tm1 ([4]; PBS): 59.83 ± 0.08 °C

CD80-K89Q-D90Q-Fc: variant CD80 ECD (K89Q, D90Q) fused to human IgG1 Fc
AC-SINS Score ([2]; Table 6): 0 | AUC ([3]; 3 mpk IV): 1230 µg·h/mL | AUC fold-increase over WT ([3]; 3 mpk IV): 0.50 | Cmax ([3]; 3 mpk IV): 89.4 µg/mL | Tmax ([3]; 3 mpk IV): 4.98 min | AUC ([3]; 15 mpk IV): 12100 µg·h/mL | AUC fold-increase over WT ([3]; 15 mpk IV): 0.87 | Cmax ([3]; 15 mpk IV): 570 µg/mL | Tmax ([3]; 15 mpk IV): 4.98 min | AUC ([3]; 50 mpk IV): 27300 µg·h/mL | AUC fold-increase over WT ([3]; 50 mpk IV): 0.74 | Cmax ([3]; 50 mpk IV): 1420 µg/mL | Tmax ([3]; 50 mpk IV): 4.98 min | DSC Tm1 ([4]; PBS): 59.67 ± 0.10 °C | enhanced co-stimulation compared to CD80-WT-Fc [5]: about 4 fold
